Results taken from patent US20070071742A1 (PERLAN THERAPEUTICS, published 2007).

Target: ICAM-1 on HeLa cells (UniProt P05362 28-532, limits assumed)
Assay: cell-based or functional assay

ICAM-1 on HeLa cells, sequence (P05362 28-532 limits assumed): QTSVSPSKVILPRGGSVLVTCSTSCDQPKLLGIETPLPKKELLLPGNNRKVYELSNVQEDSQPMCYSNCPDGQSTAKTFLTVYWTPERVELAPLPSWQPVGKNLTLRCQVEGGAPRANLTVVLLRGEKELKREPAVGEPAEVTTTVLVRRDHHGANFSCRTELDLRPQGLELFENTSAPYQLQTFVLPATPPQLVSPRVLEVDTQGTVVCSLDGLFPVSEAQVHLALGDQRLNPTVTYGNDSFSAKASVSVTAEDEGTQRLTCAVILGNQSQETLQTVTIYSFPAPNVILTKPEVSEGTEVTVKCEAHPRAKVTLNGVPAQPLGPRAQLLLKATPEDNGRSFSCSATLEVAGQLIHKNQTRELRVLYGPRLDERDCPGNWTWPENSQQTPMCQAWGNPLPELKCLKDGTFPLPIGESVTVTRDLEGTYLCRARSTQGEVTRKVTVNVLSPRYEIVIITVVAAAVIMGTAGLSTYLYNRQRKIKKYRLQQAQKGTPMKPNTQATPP

| Binder | EC 50 (µM): 50% protection of HeLa cells against HRV15 infection at 1 MOI [µM] |
| --- | --- |
| HumA humanized 1A6 scFv (scFv, not shown: large carriers) scFv: DIQMTQSPSSLSASVGDRVTITCRASQSISNNLHWYQQKPGKAPKLLIYHASQSISGVPSRFSGSGSGTDFTLTISSLQPEDFATYYCQQSNSWPYTFGQGTKVEIKRGGGGSGGGGSGGGGSGGGGSEVQLVESGGGLVQPGGSLRLSCAASGFNIKDTYIHWVRQAPGKGLEWVARIDPANDNTIYADSVKGRFTISSDDSKNTAYLQMNSLRAEDTAVYYCTDSGYWFAYWGQGTLVTVSS | 2.8 |
| HumB humanized 1A6 scFv (scFv, not shown: large carriers) scFv: DIQMTQSPSSLSASVGDRVTITCRASQSISNNLHWYQQKPGKAPKLLIYHASQSISGVPSRFSGSGSGTDFTLTISSLQPEDFATYYCQQSNSWPYTFGQGTKVEIKRGGGGSGGGGSGGGGSGGGGSEVQLVESGGGLVQPGGSLRLSCAASGFNIKDTYIHWVRQAPGKGLEWVARIDPANDNTIYADSVKGRFTISSDDSKNTAYLQMNSLRAEDTAVYYCTASGYWFAYWGQGTLVTVSS | 0.19 |
| HumC humanized 1A6 scFv (scFv, not shown: large carriers) scFv: DIQMTQSPSSLSASVGDRVTITCRASQSISNNLHWYQQKPGKAPKLLIYHASQSISGVPSRFSGSGSGTDFTLTISSLQPEDFATYYCQQSNSWPYTFGQGTKVEIKRGGGGSGGGGSGGGGSGGGGSEVQLVESGGGLVQPGGSLRLSCAASGFNIKDTYIHWVRQAPGKGLEWVARIDPANDNTIYADSVKGRFTISGDDSKNTAYLQMNSLRAEDTAVYYCTTSGYWFAYWGQGTLVTVSS | 0.22 |
